According to publication PMC11667166:
Where two headings read alike, the source gives them in different places.

Row | Substance | localisation_or_trafficking (N-glycosylation at N126) | localisation_or_trafficking (N-glycosylation at N195) | localisation_or_trafficking (N-glycosylation at N213)
1 | CD320: N126Q | no change | – | –
2 | CD320: N126Q/N195Q/N213Q (QQQ) | no change | no change | no change
3 | CD320: N195Q | – | no change | –
4 | CD320: N213Q | – | – | no change
